# Data: the RNAGym collection of RNA variant scans (doi:10.7554/elife.90254)
# B1: LINE1-full (parent)
# chain: UACGUAGGUGGUUUUCCCCUGAUAGUGCUAAGGGGGCCUGGAAGUUUGGACUGGGCAGAGCUCAACACAGCGUGGCAAAGUGGCUGUGGCUAGACUGCCUCUCUGGAUUCCUCGUCACUCAGCAGGGCAUCUCUGAGAGAAAUGCC
# Variants of: B1
# Assay: self-cleavage, relative activity (ratio to wild type); higher = more cleavage; in vitro, sequencing; the parent is a self-cleaving ribozyme
row,Variant,self-cleavage
1,UACGUAGGUGGUUUUCCCCUGAUAGUGCUAAGGGGGCCUGGAAGUUUGGACUGGGCAGAGCUCAACACAGCGUGGCAAAGUGGCUGUGGCUAGACUCCCUCUCUGGAAUCCUCGUCACUCAGCAGGGCAUCUCUGAGAGAAAUGCC [G97C U108A],0.14
2,UACGUAGGUGGUUUUCCCCUGAUAGUGCUAAGGGGGCCUGGAAGUUUGGACUGGGCAGAGCUCAACACAGCGUGGCAAAGUGGCUGUGGCUAGACUGCCACUCUGGAUUCCUCGUCACUCAGCAGGGCAUCUCUGCGAGAAAUGCC [U100A A136C],1.05
3,UACGUAGGUGGUUUUCCCCUGAUAGUGCUAAGGGGGCCUGGAAGUUUGGACUGGGCAGAGCUCAACACAGCGUGGCAAAGUGGCUGUGGCUAGACUUCCUCUCAGGAUUCCUCGUCACUCAGCAGGGCAUCUCUGAGAGAAAUGCC [G97U U104A],0.02
4,UACGUAGGUGGUAUUCCCCUGAUAGAGCUAAGGGGGCCUGGAAGUUUGGACUGGGCAGAGCUCAACACAGCGUGGCAAAGUGGCUGUGGCUAGACUGCCUCUCUGGAUUCCUCGUCACUCAGCAGGGCAUCUCUGAGAGAAAUGCC [U13A U26A],0.78
5,UACGUAGGUGGUUUUCCCCUGAUAGUGCUACGGGGGCCUGGAAGUUUGGACUGGGCAGAGCUCAACACAGCGUGGCAAAGUGGCUGUGGCUAGACUGCCUCUCAGGAUUCCUCGUCACUCAGCAGGGCAUCUCUGAGAGAAAUGCC [A31C U104A],2.67
6,UACGUAGGUGGUUUUCCCCUGAUAGUGCUAAGGGGGCCUGGAAGUUUGGACUGGGCAGAGCUCAACACAGCGUGGCAAAGUGGCUGUGGCUAGACUGCCUCUCUGGAUUCCUCGUCACCCAGCAGGGCAUCUCUGAGAGGAAUGCC [U119C A140G],1.88
7,UACGUAGGUGGUUUUCCCCUGAUAGUGCUAAGGGGGCCUGGAAGUUUGGACUGUGCAGAGCUCAACACAGCGUGGCAAAGUGGCUGUGGCUAGACUGCCUCUCUAGAUUCCUCGUCACUCAGCAGGGCAUCUCUGAGAGAAAUGCC [G54U G105A],0.87
8,UACGUAGGUGGUCUUCCCCUGAUAGUGCUAAGGGGGCCUGGAAGUUUGGACGGGGCAGAGCUCAACACAGCGUGGCAAAGUGGCUGUGGCUAGACUGCCUCUCUGGAUUCCUCGUCACUCAGCAGGGCAUCUCUGAGAGAAAUGCC [U13C U52G],1.3
9,UACGUAGGUGGUUUUCCCCUGAUAGUGCUAAGGGGGCCUGGAAGUUUGGACUGGGCAGAGCUCAACACAGCCUGGCAAAGUGGCUGUGGCUAGGCUGCCUCUCUGGAUUCCUCGUCACUCAGCAGGGCAUCUCUGAGAGAAAUGCC [G72C A94G],0.18
10,UACGUAGGUGGUUUUCCCCUGAUAGUGCUAAGGGGGCCUGGAAGUUUGGACUGGGCAGAGCUCAACACAGCGUGGCAAAGUGGCUGUGGCUAGACUGCCUCUCUGGAUUCCUUGUCCCUCAGCAGGGCAUCUCUGAGAGAAAUGCC [C113U A117C],1.68
11,UACGUAGGUGGUUUUCCCCUGAUAGUGCUAAGGGGGCCUGGAAGUUUGGACUGGGCAGAGCUCAACACAGCGUGGCAAAGUGGCUGUGGCUAGACUGCCUCUCUGGAUUCCUCGUCACUCAGCCGGGCGUCUCUGAGAGAAAUGCC [A124C A129G],0.66
12,UACGUAGGUGGUUUUCCCCUGAUAGUGCUAAGGGGGCCUGGAAGUUUGGACUGGUCAGAGCUCAACACAGCGUGGCAAAGUGGCUGUGGCUAGACUGCCUCUCUGGAUUCCUCGCCACUCAGCAGGGCAUCUCUGAGAGAAAUGCC [G55U U115C],0.4
13,UACGUAGGUGGUUUUCCCCUGAUAGUGCUAAGGGGGCCAGGAAGUUUGGACUGGGCAGAGCUCAACACAGCGUGGCAAAGUGGCUGUGGAUAGACUGCCUCUCUGGAUUCCUCGUCACUCAGCAGGGCAUCUCUGAGAGAAAUGCC [U39A C90A],0.03
14,UACGUAGGUGGUUUUCCCCUGAUAGUGCUAAGGGGGCCUGAAAGUUUGGACUGGGCAGAGCUCAACACAGCGUGGCAUAGUGGCUGUGGCUAGACUGCCUCUCUGGAUUCCUCGUCACUCAGCAGGGCAUCUCUGAGAGAAAUGCC [G41A A78U],2.63
15,UACGUAGGUGGUUUUCCCCUGAUGGUGCUAAGGGGGCCUGGAAGUUUGGACUGGGCAGAGCUCAACACAGCGUGGCAAAGUGGCUGUGGCUAGACUGCCUCUCUGGAUCCCUCGUCACUCAGCAGGGCAUCUCUGAGAGAAAUGCC [A24G U109C],0.76
16,UACGUAGGUGGUUUUCCCCUGAUAGUGCUAAGGGGGCCUGGAAGUUUGGACUGGGCAGAGCUCAACACAGCGUGGCAAAGUGGCUGUGGCUAGACGGCCUCUCUGGAUUCCUCGUCACUCAGCAGGGCAUCUCUGAGAGAGAUGCC [U96G A141G],0
17,UACGUAGGUGGUUUUCCCCUUAUAGUGCUAAGGGGGCCUGGAAGUUUGGACUGGGCAGAGCUCAACACAGCGUGGCAAAGUGGCUGUGGCUGGACUGCCUCUCUGGAUUCCUCGUCACUCAGCAGGGCAUCUCUGAGAGAAAUGCC [G21U A92G],0.1
18,UACGUAGAUGGUUUUCCCCUGAUAGUGCUAAGGGGGCCUGGAAGUUUGGACUGGGCAGAGCUCAACACAGCGUGGCAAAGUGGCUGUGGCUAGACUGCCUCUCUGGAUUCCUCGUCACUCAGCAGGGCAUCUCUGAGAGAAGUGCC [G8A A142G],1.45
19,UACGUAGGUGGUUUUCCCCUGAUAGUGCUAAGGGGGCCUGGAAGUUUGGACUGGGCAGAGCUCAACACAGCGUGGCAAAGUGGCUGUGGCCAGACUGCCUCUCUGGAUUUCUCGUCACUCAGCAGGGCAUCUCUGAGAGAAAUGCC [U91C C110U],0.66
20,UACGUAGGUGGUUUUCCCCUGAUAGUGCUAAGGGGGCCUGGAAGUUUGGACUGGGCAGAGCUCAACACAGCGCGGCAAAGUGGCUGUGGCUAGACUGCCUCUCAGGAUUCCUCGUCACUCAGCAGGGCAUCUCUGAGAGAAAUGCC [U73C U104A],1.93
